Literature values in PMC9636575.

Target: MqsA 1-76 (Escherichia coli) (UniProt Q46864)
Sequence (Q46864 1-76): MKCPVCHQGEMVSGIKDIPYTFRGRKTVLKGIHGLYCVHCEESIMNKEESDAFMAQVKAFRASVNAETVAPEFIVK

MqsR, sequence (Q46865 whole entry): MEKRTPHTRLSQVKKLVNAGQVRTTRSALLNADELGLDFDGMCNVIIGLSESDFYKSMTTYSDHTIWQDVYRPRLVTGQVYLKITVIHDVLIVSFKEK

For MqsR (from UniProt Q46865), the Kd is listed as less than 1 nM.
